Positions count from the first letter of the chain named.

B1: hu025.021 (antibody, V domains shown)
VH: EVQLVQSGAEVKKPGATVKISCKVSGFNIKDYYMHWVQQAPGKGLEWIGRIDPEDAETKYAPKFQGRVTITADTSTNTAYMELSSLRSEDTAVYYCDRGLAYWGQGTLVTVSS
VL: EIVLTQSPATLSLSPGERATLSCSASSSVSSSYLYWYQQKPGQAPKLWIYSTSNLASGIPARFSGSGSGTDYTLTISSLEPEDFAVYYCHQWSSYPYTFGQGTKLEIK
notes: Humanized 025; also called hu025.21
B2: hu025.023 (antibody, V domains shown)
VH: B1 VH
VL: B1 VL with Y72F
notes: Humanized 025; also called hu025.23
B3: hu025.060 (antibody, V domains shown)
VH: B1 VH with V24A
VL: B1 VL with Y72F
notes: Humanized 025; also called hu025.60
B4: hu025.033 (antibody, V domains shown)
VH: B1 VH with N77D
VL: B1 VL
notes: Humanized 025
B5: hu025.059 (antibody, V domains shown)
VH: B1 VH with V24A
VL: B1 VL
notes: Humanized 025; also called hu025.59

T5 sequence (O00241 30-398): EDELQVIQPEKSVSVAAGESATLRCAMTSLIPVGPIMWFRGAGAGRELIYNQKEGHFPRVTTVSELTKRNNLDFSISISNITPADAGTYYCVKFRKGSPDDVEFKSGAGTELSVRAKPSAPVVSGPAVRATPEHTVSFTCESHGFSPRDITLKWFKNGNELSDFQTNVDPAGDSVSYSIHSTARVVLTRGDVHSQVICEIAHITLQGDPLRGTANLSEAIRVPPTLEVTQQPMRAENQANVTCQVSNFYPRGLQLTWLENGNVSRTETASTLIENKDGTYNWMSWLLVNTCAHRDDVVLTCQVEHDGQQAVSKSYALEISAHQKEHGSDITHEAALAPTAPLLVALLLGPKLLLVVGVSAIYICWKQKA
Sequence of Human SIRPα v1 (antigen of the Octet and Biacore affinity measurements) (P78324 31-370 limits assumed): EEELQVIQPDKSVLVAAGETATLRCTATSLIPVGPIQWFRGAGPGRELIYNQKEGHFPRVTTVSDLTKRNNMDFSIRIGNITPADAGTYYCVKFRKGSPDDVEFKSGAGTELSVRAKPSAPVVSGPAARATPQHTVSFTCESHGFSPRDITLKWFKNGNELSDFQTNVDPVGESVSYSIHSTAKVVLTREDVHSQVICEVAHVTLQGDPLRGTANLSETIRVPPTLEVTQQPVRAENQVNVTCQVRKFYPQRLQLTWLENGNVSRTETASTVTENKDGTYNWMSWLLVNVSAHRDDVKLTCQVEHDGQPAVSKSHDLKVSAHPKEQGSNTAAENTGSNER
T1 sequence (Q9P1W8 29-387): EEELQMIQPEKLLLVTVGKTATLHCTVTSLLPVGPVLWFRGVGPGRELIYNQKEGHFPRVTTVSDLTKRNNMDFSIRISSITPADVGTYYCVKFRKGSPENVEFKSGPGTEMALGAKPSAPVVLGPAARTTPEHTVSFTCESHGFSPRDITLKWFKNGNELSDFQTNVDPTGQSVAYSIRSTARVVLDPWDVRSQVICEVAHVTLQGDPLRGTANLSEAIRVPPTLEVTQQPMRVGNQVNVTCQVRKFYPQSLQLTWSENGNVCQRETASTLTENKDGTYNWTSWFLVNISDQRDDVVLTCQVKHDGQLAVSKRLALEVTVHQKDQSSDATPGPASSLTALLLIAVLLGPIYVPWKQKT

The target of one assay is full length human SIRPα v1 with a small beta-gal fragment (ED) fused to its C-terminal, expressed in K562 … (human, UniProt P78324 31-504). As to the kind of experiment: cell-based or functional assay.
Sequence of full length human SIRPα v1 with a small beta-gal fragment (ED) fused to its C-terminal, expressed in K562 … (P78324 31-504): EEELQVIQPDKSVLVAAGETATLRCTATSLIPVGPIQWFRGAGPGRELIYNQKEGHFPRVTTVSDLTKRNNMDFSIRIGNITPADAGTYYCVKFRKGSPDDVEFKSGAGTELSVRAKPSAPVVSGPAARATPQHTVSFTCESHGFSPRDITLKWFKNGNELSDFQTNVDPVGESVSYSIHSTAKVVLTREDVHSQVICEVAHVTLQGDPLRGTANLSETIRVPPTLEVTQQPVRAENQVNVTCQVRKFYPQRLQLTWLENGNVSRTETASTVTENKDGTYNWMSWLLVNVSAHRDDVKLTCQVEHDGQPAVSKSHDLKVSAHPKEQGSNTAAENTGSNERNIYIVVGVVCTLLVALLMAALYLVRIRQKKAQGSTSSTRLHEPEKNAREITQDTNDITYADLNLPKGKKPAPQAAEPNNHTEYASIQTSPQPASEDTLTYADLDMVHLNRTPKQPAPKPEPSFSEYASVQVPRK
With B1, the “SHP-1 recruitment blocking, IC50” value is 0.1 nM and the “SHP-1 recruitment blocking, TOP blocking (%)” value came out at 86.3%.

For B2, the “SHP-1 recruitment blocking, IC50” value turned out to be 0.1 nM and the “SHP-1 recruitment blocking, TOP blocking (%)” value was 85.5%.

On to B3, for which the “SHP-1 recruitment blocking, IC50” value is 0.09 nM and the “SHP-1 recruitment blocking, TOP blocking (%)” value was determined as 87.5%.

As to B4, the “SHP-1 recruitment blocking, IC50” value is 0.19 nM and the “SHP-1 recruitment blocking, TOP blocking (%)” value was determined as 84.5%.

For the molecule B5, the “SHP-1 recruitment blocking, IC50” value amounted to 0.1 nM and the “SHP-1 recruitment blocking, TOP blocking (%)” value came out at 78.8%.

Another assay addresses T1, human SIRPγ stably expressed on 293F cells (human, UniProt Q9P1W8 29-387).
T1 construct: whole, on cells
In words: FACS, 293F-hSIRPγ cells. The source says: (§1) All the humanized antibodies as tested were confirmed to retain the similar activity as the parental antibody of 025c to bind to SIRP family members.
(In general: Flow cytometry measures light scatter and fluorescence of single cells or particles in a stream.)
Usually EC50 stands for the midpoint of the concentration-response curve. Regarding B1, the EC50 is 0.21 nM and the “TOP MFI” value amounted to 22100 MFI.

Regarding B2, the EC50 came out at 0.2 nM and the “TOP MFI” value was determined as 22400 MFI.

On to B3, for which a half-maximal effect (EC50) was put at 0.22 nM and the “TOP MFI” value worked out at 22200 MFI.

Consider B4, for which a half-maximal response (EC50) required 0.21 nM and the “TOP MFI” value came to 20900 MFI.

B5: the EC50 amounted to 0.2 nM and the “TOP MFI” value turned out to be 22700 MFI.

In the next assay the target is T2, full length human SIRPα v1 stably expressed on CHOK1 or 293F cells (human, UniProt P78324 31-504).
T2 construct: whole, on cells; also called CHOK1-human SIRPα v1; CHOK1-hSIRPα v1
T2 sequence (P78324 31-504): as above
As to the kind of experiment: FACS, CHOK1-hSIRPα v1 cells.
From the text: as §1
As to B1, a half-maximal effect (EC50) was put at 1.08 nM and the “TOP MFI” value came out at 56400 MFI.

B2: the EC50 was 1.13 nM and the “TOP MFI” value was 57800 MFI.

On to B3, for which a half-maximal effect (EC50) was put at 0.84 nM and the “TOP MFI” value was 61500 MFI.

On to B4, for which the EC50 came to 0.99 nM and the “TOP MFI” value was determined as 53800 MFI.

On to B5, for which the EC50 worked out at 1.05 nM and the “TOP MFI” value came out at 59400 MFI.

Another assay has as its target Human SIRPα v1 (antigen of the Octet and Biacore affinity measurements) (human, UniProt P78324 31-370, limits assumed). In words: SPR (Biacore), 1:1 binding model. The method, then: The humanized antibodies were characterized for binding affinity against human SIRPα v1, human SIRPα v2 using Surface Plasmon Resonance technology (Biacore system). The association and dissociation curves were fit with 1:1 binding model, and the Ka/Kd/KD values for each antibody were calculated.
What is called Kd is the constant that tells how readily two partners part at equilibrium. Higher therefore signals weaker binding. One may read the koff as the rate constant with which the complex falls apart. Higher therefore signals fast dissociation. In general, kon refers to the second-order rate constant of association. Low readings indicate slower complex formation, high ones faster complex formation. B1 showed a Kd of 3.05 nM, a koff of 0.00183 s⁻¹ and a kon of 599000 M⁻¹ s⁻¹.

In turn, B2 returned a Kd of 2.67 nM, a koff of 0.00172 s⁻¹ and a kon of 643000 M⁻¹ s⁻¹.

In turn, B3 had a Kd of 1.99 nM, a koff of 0.00111 s⁻¹ and a kon of 560000 M⁻¹ s⁻¹.

The molecule B5 displayed a Kd of 2.29 nM, a koff of 0.00123 s⁻¹ and a kon of 536000 M⁻¹ s⁻¹.

The target of another assay is T3, human SIRPα v1 ECD recombinant protein (tag not given) (human, UniProt P78324 31-373).
T3 construct: extracellular domain; also called biotin labeled soluble human SIRPα v1 ECD recombinant protein; ELISA microplate coated human SIRPα v1 ECD
T3 sequence (P78324 31-373): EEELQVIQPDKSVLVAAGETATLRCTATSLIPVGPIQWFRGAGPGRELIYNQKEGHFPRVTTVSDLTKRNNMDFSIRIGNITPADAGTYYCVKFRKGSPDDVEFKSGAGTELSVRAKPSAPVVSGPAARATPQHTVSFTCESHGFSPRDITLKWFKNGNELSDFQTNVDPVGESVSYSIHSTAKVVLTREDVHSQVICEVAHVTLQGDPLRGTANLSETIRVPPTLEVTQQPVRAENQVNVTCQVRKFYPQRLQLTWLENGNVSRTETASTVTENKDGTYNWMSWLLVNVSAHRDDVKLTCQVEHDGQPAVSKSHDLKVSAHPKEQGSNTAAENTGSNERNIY
In words: competitive ELISA, mFc-CD47 ECD on coated SIRPα v1 ECD. As for the experimental part: (§2) Competitive ELISA assay was used to determine whether the purified chimeric antibodies can block CD47 and SIRPα interaction. Briefly, antibody and mFc tagged human CD47 ECD recombinant protein were co-incubated with ELISA microplate coated human SIRPα v1 ECD (FIGS. 6A and 6B) or human SIRPα v2 ECD (FIGS. 7A and 7B) recombinant protein. After washing, HRP labeled anti-mouse Fc 2nd antibody (Sigma) was added and incubated at 37° C. for 1 hour. Then, 100 μl/well of TMB solution (Biotechnology) was added. After incubation for 15 minutes at room temperature, the reaction was stopped by the addition of 50 μl of 1N HCl. OD 450 nm was read. Blocking ratio was determined by blockade of human CD47 ECD recombinant protein binding to ELISA microplate coated human SIRPα ECD recombinant protein. Other than 005, all antibodies as tested can block interaction between human CD47 and different human SIRPα variants.
(§3) The humanized antibodies were tested for the ability to block CD47 and SIRPα interaction with competitive ELISA assay (refer to methods described in Example 4.2.3.).
Background: In an ELISA, binding on a coated surface is turned into a signal by an enzyme label.
What is called IC50 is the concentration that inhibits the measured activity by half. With B1, the IC50 came out at 2.07 nM and the “TOP blocking (%)” value amounted to 97.7%.

Take B2: the half-inhibitory concentration (IC50) was 2.6 nM and the “TOP blocking (%)” value is 97.2%.

On to B3, for which the IC50 was 2.15 nM and the “TOP blocking (%)” value was 95.2%.

Regarding B4, the IC50 was 2.22 nM and the “TOP blocking (%)” value worked out at 97.2%.

B5: the IC50 came to 2.48 nM and the “TOP blocking (%)” value was found to be 97.1%.

A further assay deals with T4, human SIRPα v2 ECD recombinant protein (tag not given) (human).
T4 construct: extracellular domain; also called ELISA microplate coated human SIRPα v2 ECD
In words: competitive ELISA, mFc-CD47 ECD on coated SIRPα v2 ECD. The method, then:
as §2, §3
As for B1, the IC50 is 1.96 nM and the “TOP blocking (%)” value is 98.3%.

In the case of B2, the IC50 was 2.07 nM and the “TOP blocking (%)” value stood at 98%.

For the molecule B3, the IC50 came out at 1.88 nM and the “TOP blocking (%)” value was 97%.

For B4, the IC50 came out at 1.88 nM and the “TOP blocking (%)” value was found to be 98.3%.

With B5, the IC50 is 2.03 nM and the “TOP blocking (%)” value turned out to be 98.3%.

A further assay has as its target T5, human SIRPβ stably expressed on CHOK1 cells (human, UniProt O00241 30-398).
T5 construct: whole, on cells; also called CHOK1-human SIRPB; CHOK1-hSIRPβ
As to the kind of experiment: FACS, CHOK1 cells stably expressing human SIRPβ.
From the text: as §1
In general, EC50 (read off the curve) refers to the midpoint of the concentration-response curve. A low value points to a more potent agent. With B1, the “EC50 (read off the curve)” value is roughly 0.7 nM.

Regarding B2, the “EC50 (read off the curve)” value was roughly 0.7 nM.

For the molecule B3, the “EC50 (read off the curve)” value is roughly 0.7 nM.

For B4, the “EC50 (read off the curve)” value was roughly 0.7 nM.

On to B5, for which the “EC50 (read off the curve)” value was roughly 0.7 nM.

A further assay has as its target T5, human SIRPβ stably expressed on CHOK1 …. In words: FACS, CHOK1-hSIRPβ cells (columns c6 and c7 read as swapped).
From the text: as §1
As to B1, the EC50 was determined as 0.68 nM and the “TOP MFI” value is 72000 MFI.

For B2, the EC50 worked out at 0.66 nM and the “TOP MFI” value stood at 72800 MFI.

For B3, the EC50 came out at 0.75 nM and the “TOP MFI” value came out at 71200 MFI.

Take B4: the EC50 came out at 0.8 nM and the “TOP MFI” value amounted to 69700 MFI.

Regarding B5, the EC50 is 0.67 nM and the “TOP MFI” value was 73100 MFI.

The next assay concerns the target T2, full length human SIRPα v1 stably …. In words: competitive FACS, mFc-CD47 ECD on CHOK1-human SIRPα v1 cells. As for the experimental part: Competitive FACS assay was also set up to further compare the blocking activity of the humanized antibodies and reference antibodies. Briefly antibody and mFc tagged human CD47 ECD recombinant protein were co-incubated with CHOK1 cells stably expressing human SIRPα v1 (FIG. 16A) or human SIRPα v2 (FIG. 16B). After washing, dye labeled anti-mouse Fc 2nd antibody (Sigma) was added and incubated at 37° C. for 1 hour. Fluorescence intensity was detected. Blocking ratio was determined by blockade of human CD47 ECD recombinant protein binding to SIRPα expressed CHOK1 cells. […] In particular, HEFLB doesn't work at all for human SIRPα v2.
As to B2, the IC50 is 0.57 nM and the “TOP blocking (%)” value was 97.7%.

In the case of B3, the half-inhibitory concentration (IC50) is 0.53 nM and the “TOP blocking (%)” value worked out at 98.7%.

The values are drawn from US20250270315A1 (ELPISCIENCE SUZHOU BIOPHARMA, published 2025).
